Experimental data: patent US12612465B2, “Formulations comprising PCSK9 specific monoclonal antibodies” (Amgen Inc., priority 2012, dated 2026)

Target: T1, PCSK1 (Homo sapiens, UniProt P29120)
T1 construct: purchased R&D Systems
T1 sequence (P29120 111-753): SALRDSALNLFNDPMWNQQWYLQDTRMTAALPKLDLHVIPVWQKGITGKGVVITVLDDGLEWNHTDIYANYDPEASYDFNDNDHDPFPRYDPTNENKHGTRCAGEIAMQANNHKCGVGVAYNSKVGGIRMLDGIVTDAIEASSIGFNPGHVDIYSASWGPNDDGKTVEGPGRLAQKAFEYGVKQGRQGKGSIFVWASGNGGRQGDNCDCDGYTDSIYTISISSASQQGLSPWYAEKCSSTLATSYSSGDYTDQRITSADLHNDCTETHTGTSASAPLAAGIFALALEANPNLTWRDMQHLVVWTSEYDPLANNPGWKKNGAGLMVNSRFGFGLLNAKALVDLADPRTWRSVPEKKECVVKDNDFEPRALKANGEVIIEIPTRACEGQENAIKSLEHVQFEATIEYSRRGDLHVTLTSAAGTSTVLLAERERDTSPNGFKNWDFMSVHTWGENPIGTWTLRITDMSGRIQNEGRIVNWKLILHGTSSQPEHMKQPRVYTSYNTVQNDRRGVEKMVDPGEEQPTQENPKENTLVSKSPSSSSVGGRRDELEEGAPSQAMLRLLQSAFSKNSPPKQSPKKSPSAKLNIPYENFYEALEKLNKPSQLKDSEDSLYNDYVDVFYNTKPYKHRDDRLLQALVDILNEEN
Assay: 11F1 binding specificity competition assay
Conditions: 0.4 μg/mL 11F1, 0 to 20 μg/mL competitor
Procedure: Biotinylated PCSK9, diluted in buffer A (25 mM Tris, 150 mM NaCl, 0.1% BSA, 0.05% tween, pH 7.5) was bound to neutravidin coated 96 well plates at a concentration of 0.2 μg/mL, for one hour incubation at room temperature. Separately, 0.4 μg/mL of 11F1 was incubated for one hour at room temperature with various concentrations (ranging from 0 to 20 μg/mL) of either PCSK1, PCSK2, PCSK7, PCSK9 or furin (R&D Systems, Minneapolis, Minn.) (diluted in buffer A w/o tween). Furin inhibitor, at 4.5 μg/mL, was included with all furin containing reactions. The PCSK9 coated streptavidin plate was washed with buffer A and the antibody/proprotein convertase mixture was added to the plate and incubated at room temperature for one hour. After washing, bound antibody was detected by incubation with goat-α-human Fc-HRP (160 ng/mL, diluted in buffer A) (Jackson Laboratories, Bar Harbor, Me.) followed by TMB substrate. The reaction was stopped with 1 N HCl and the absorbance was read at a wavelength of 450 nm on a Spectramax Plus 384 spectrophotometer (Molecular Devices Inc., Sunnyvale, Calif.).
This assay relied on the ability of proprotein convertase in solution to compete for the binding of 11F1 to plate-captured PCSK9. […] All results were expressed as the mean OD450 value±standard deviation versus concentration of the proprotein convertase. […] Therefore, at the protein concentrations studied, 11F1 binds only to PCSK9 and not to the other proprotein convertase family members tested.

Substance: 11F1: anti-PCSK9 ABP, light/heavy variable region SEQ ID NO 465/463 [Antibody 11F1]
- effect of pre-incubation with PCSK1 in solution on 11F1 binding to plate-captured PCSK9: did not significantly impact the binding
